Assay results published in US20240216513A1, “FATTY ACID-BIFUNCTIONAL DEGRADER CONJUGATES AND THEIR METHODS OF USE” (Novartis AG, priority 2021, published 2024).
Where two headings read alike, the source gives them in different places. Marks after values point to notes of the source that are not given here.

Tests used:
[1] = BTK FAC plasma stability assay, rat plasma; assay type: in vitro ADME
Procedure, shortened: (§1)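 Compound from a 500 µM acetonitrile:water working solution was spiked into K3-EDTA plasma or Dulbecco's PBS and incubated with shaking at 38 °C. Samples taken at 0, 2, 6 and 24 h were precipitated with cold acetonitrile containing glyburide internal standard. Semi-quantitative LC-MS/MS used analyte:internal standard peak area ratios.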

[2] = BTK FAC plasma stability assay, PBS buffer arm; assay type: physicochemical; conditions: for Plasma stability (h) PBS: incubation to 24 h
Procedure, shortened: as §1

[3] = BTK FAC plasma stability assay, dog plasma; assay type: in vitro ADME
[4] = In vivo pharmacokinetic study in Beagle dogs (i.v. or s.c.), FAC and payload in blood; parameters: species or system dog
Method: (§2) Pharmacokinetic studies were conducted in male C57/B16 mice; male Sprague-Dawley rats; male Beagle dogs and male Cynomolgus monkeys. 3 animals per group were used for each study performed. All studies were performed in accordance with local animal welfare regulations.
Between 1 and 10 µM/kg FAC was administered either intravenously or subcutaneously as a solution in 10 mM PBS with NaOH (dose volume 0.4 mL/kg in dog and monkey s.c. and 0.2 mL/kg i.v. in monkey). Serial 100 µL blood samples were collected via venipuncture of the cephalic vein at defined timepoints to 336 hours (into EDTA coated tubes).
(§3) Each blood sample was precipitated with acetonitrile containing internal standard; samples were mixed and centrifuged (20 minutes 4000 RPM at 4° C.). Supernatant was transferred to a microwell plate and evaporated under nitrogen at 60° C. Residue was resuspended in acetonitrile/water (7:3 v/v); plate sealed and transferred to an ultrasonic bath for 3 minutes, prior to analysis. Quantification was performed by LC-MS/MS (SciexAP16500 Q-trap, Shimadzu Nexera X2) using a Phenomenex Polar RP analytical column (2.5 μm particle size; 50×2 mm). The mobile phase consisted of solvent A (0.1% formic acid in water) and solvent B (0.1% formic acid in acetonitrile). The fatty acid conjugate and API were detected using multiple reaction monitoring.
(§4) Data analysis and calculation of non-compartmental pharmacokinetic parameters was
(§5) performed using an in-house analysis. Following intravenous administration whole blood clearance was calculated by the dose administered divided by AUC0-inf. Volume of distribution at steady state was calculated as MRT*CL, where MRT is the mean residence time, calculated by AUMC0-inf/AUC0-inf. The half-life (t1/2) of the terminal elimination phase was calculated by 0.693/λ. For both intravenous and subcutaneous administration, the systemic exposures were determined by calculating the area under the blood concentration time curve (AUC) from time zero to the last observed quantifiable concentration (AUClast) by using the linear trapezoidal method and normalised to dose. Extrapolated AUC (AUC0-inf) is calculated by addition of AUClast and AUCtlast-inf; where AUCtlast-inf is calculated based on Clast/λ. The slope of the terminal elimination phase was estimated by linear regression of the terminal data points (minimum 3 points) from a natural log concentration versus time plot of the data. Bioavailability was calculated as the dose normalized ratio of […] AUCinf to intravenous AUCinf (100*[SC AUCinf/SC dose]/[IV AUCinf/IV dose]). Following subcutaneous administration Cmax is calculated as the average maximum observed peak concentration and Tmax is the time associated with the determined Cmax.

[5] = BTK FAC plasma stability assay, mouse plasma; assay type: in vitro ADME
Procedure, shortened: as §1

BTK C481S = biological target: T1, BTK C481S (Homo sapiens, UniProt Q06187, C481S); experiment: PD screen in TMD8 BTK C481S mutant tumor-bearing mice, BTK levels and compound concentrations in blood and tumor; assay type: in vivo, mouse; conditions: for Duration of BTK degradation in mouse ≥90%: 25 umol/kg
T1 construct: endogenous in cells; host or cells: TMD8 BTK C481S mutant tumour xenografts in mice
T1 sequence (Q06187 whole entry C481S): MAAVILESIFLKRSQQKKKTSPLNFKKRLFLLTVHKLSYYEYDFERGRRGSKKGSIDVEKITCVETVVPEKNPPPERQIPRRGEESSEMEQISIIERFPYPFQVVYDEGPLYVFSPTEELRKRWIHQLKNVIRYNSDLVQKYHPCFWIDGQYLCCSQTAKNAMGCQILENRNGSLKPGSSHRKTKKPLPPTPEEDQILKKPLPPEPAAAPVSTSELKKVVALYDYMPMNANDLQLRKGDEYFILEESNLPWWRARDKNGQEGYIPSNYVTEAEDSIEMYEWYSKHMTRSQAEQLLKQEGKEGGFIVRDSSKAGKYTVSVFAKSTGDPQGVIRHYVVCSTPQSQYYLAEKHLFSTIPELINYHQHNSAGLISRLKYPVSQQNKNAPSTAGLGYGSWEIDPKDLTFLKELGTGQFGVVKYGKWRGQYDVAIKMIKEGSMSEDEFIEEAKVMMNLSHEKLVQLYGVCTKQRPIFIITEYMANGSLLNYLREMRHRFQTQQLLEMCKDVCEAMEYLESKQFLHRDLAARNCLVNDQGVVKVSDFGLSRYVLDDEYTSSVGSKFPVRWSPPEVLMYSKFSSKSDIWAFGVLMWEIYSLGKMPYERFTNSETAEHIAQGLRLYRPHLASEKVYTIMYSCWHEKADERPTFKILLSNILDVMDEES
Method: All animal studies were conducted in accordance with ethics and procedures covered by permit nos. BS-1975 issued by the Kantonales Veterinäramt Basel-Stadt and in strict adherence to guidelines of the Eidgenössisches Tierschutzgesetz and the Eidgenössische Tierschutzverordnung, Switzerland. All animals had access to food and water ad libitum and were identified with transponders. They were housed in a specific pathogen-free facility with a 12-h light/12-h dark cycle. For PD screen experiments in TMD8 BTK C481S mutant tumor-bearing mice, FAC was injected once. Animals were randomized into groups of 2 and tissue samples collected at day 0, 4, 7 and in some studies day 10 as well. Blood samples were collected and tumors were excised, weighed, frozen in liquid nitrogen and cryogenic dry pulverized with the CryoPrep™ system (model CP-02, Covaris). Concentrations of compounds in blood and tumors were determined by UPLC/MS-MS and BTK levels were analyzed by Meso Scale Discovery.

[6] = BTK FAC plasma stability assay, cyno plasma; assay type: in vitro ADME, cynomolgus monkey
[7] = In vivo pharmacokinetic study in mice (i.v. or s.c.), FAC and payload in blood; parameters: species or system mouse; conditions: for AUC: male, C57/B16, whole blood
Method: as §2
[…] Serial 30 µL blood samples were collected via venipuncture of the tail vein in mouse, and via the cannulated jugular vein in rats at defined timepoints to 216 hours (into EDTA coated tubes).
as §3, §4, §5
For PK experiments, non-tumor bearing mice or rats were treated once (10 mL/kg) with a compound either i.v. or s.c. Serial blood samplings from the tail vein (5-20 μl) were collected during the course of the experiment. For PK/PD experiments in tumor-bearing mice, compound was administered once (10 mL/kg) either i.v. or s.c. Animals were randomized into groups of n=3 and tissue samples were collected at several time points. At the times indicated, animals were anaesthetized by exposure to 2-3% v/v isoflurane in medical oxygen. They were sacrificed without recovering from anesthetic after blood sampling into commercially prepared EDTA coated tubes (Milian, cat #TOM-14C) in order to extract plasma. The tissues were excised, weighted and rapidly frozen in liquid nitrogen. Later, tumors were cryogenic dry pulverized with the CryoPrep™ system (model CP-02, Covaris). For efficacy experiments in ectopic tumor-bearing mice, animals were randomized into groups of n=6 for a mean tumor size of 100 mm^3 and compound was administered either i.v. q3w or s.c. q2w. When implanted in brain, animals were randomized into groups of n=4 for a mean bioluminescence of 1.0-2.0E+06 [p/s]/[ρW/cm^2] and compound was administered i.v. qw. Tumor response were reported with the measures of tumor volumes or bioluminescence from the treatment start. […]

Row | Structure (SMILES) | % Release of degrader after 24 h rat [1] [%] | Plasma stability (h) rat ([1]; incubation to 24 h) [h] | % Release of degrader after 24 h PBS [2] [%] | Plasma stability (h) PBS [2] [h] | Plasma stability (h) dog [3] [h] | % Release of degrader after 24 h dog [3] [%] | % Release of degrader after 24 h mouse [5] [%] | Plasma stability (h) mouse ([5]; incubation to 24 h) [h] | % Release of degrader after 24 h cyno [6] [%] | further results
1 | CCCCCCCCCCCN(C(=O)CCCCCCCCCC(=O)O)C(CCC(=O)NCCOCCOCCOCCOCCOCCOCCOCCOCCOCCOCCOCCOCCC(=O)NCC(=O)OC(C)(C)c1ccc(C(=O)Nc2cc(F)cc(-c3ncnc4[nH]c(-c5ccc(CCN6CCC7(CC6)CCN(C(=O)c6ccc(OC)c(N8CCC(=O)NC8=O)c6)CC7)cc5)cc34)c2C)c(F)c1)C(=O)O (stereo not shown) [Example A1, 50-Carboxy-2-(4-((3-(6-(4-(2-(9-(3-(2,4-dioxotetrahydropyrimidin-1(2H)-yl)-4-methoxybenzoyl)-3,9-diazaspiro[5.5]undecan-3-yl)ethyl)phenyl)-7H-pyrrolo[2,3-d]pyrimidin-4-yl)-5-fluoro-2-methylphenyl)carbamoyl)-3-fluorophenyl)-2-methyl-4,7,47,52-tetraoxo-51-undecyl-3,10,13,16,19,22,25,28,31,34,37,40,43-tridecaoxa-6,46,51-triazadohexacontan-62-oic acid] | 17.4 | 34.8 | 1 | >48 | >48 | 14.6 | 15.1 | 28 |  | C0 ([4]; analyte FAC, FAC i.v. dose 1 umol/kg, read-out: FAC C0-uM dog): 27.2 µM; AUC ([4]; male, Beagle, dog, whole blood, iv, analyte FAC, FAC i.v. dose 1 umol/kg, read-out: FAC AUC-uM.h dog): 6.8 µM·h; C0 ([4]; male, Beagle, whole blood, sc, dog, subcutaneous dosing, FAC s.c. dose 1 umol/kg, read-out: FAC C0): 0.28 µM
2 | CCCCCCCCCCCN(C(=O)CCCCCCCCCCO)C(CCC(=O)NCCOCCOCCOCCOCCOCCOCCOCCOCCOCCOCCOCCOCCC(=O)NCCC(=O)NCCC(=O)OC(C)(C)c1ccc(C(=O)Nc2cc(F)cc(-c3ncnc4[nH]c(-c5ccc(CCN6CCC7(CC6)CCN(C(=O)c6ccc(OC)c(N8CCC(=O)NC8=O)c6)CC7)cc5)cc34)c2C)c(F)c1)C(=O)O (stereo not shown) [Example A5, 2-(4-((3-(6-(4-(2-(9-(3-(2,4-Dioxotetrahydropyrimidin-1(2H)-yl)-4-methoxybenzoyl)-3,9-diazaspiro[5.5]undecan-3-yl)ethyl)phenyl)-7H-pyrrolo[2,3-d]pyrimidin-4-yl)-5-fluoro-2-methylphenyl)carbamoyl)-3-fluorophenyl)-55-(11-hydroxy-N-undecylundecanamido)-2-methyl-4,8,12,52-tetraoxo-3,15,18,21,24,27,30,33,36,39,42,45,48-tridecaoxa-7,11,51-triazahexapentacontan-56-oic acid] | 2.5 |  | 0.1 | >48 |  | 1 | 2 |  | 0.5 | Duration of BTK degradation in mouse ≥90% (BTK C481S; i.v.): 10 days; Duration of BTK degradation in mouse ≥90% (BTK C481S; s.c.): 10 days; half-life at 5 µM ([1]; incubation to 24 h): > 48 h; half-life at 5 µM ([6]; monkey, read-out: Plasma stability (h) cyno): > 48 h; half-life at 5 µM ([3]; read-out: Plasma stability (h) dog (converted)): > 48 h; half-life at 5 µM ([5]; incubation to 24 h): > 48 h
3 | CCCCCCCCCCCN(C(=O)CCCCCCCCCC(=O)O)C(CCC(=O)NCCOCCOCCOCCOCCOCCOCCOCCOCCOCCOCCOCCOCCC(=O)N1CCC[C@H]1CC(=O)OC(C)(C)c1ccc(C(=O)Nc2cc(F)cc(-c3ncnc4[nH]c(-c5ccc(CCN6CCC7(CC6)CCN(C(=O)c6ccc(OC)c(N8CCC(=O)NC8=O)c6)CC7)cc5)cc34)c2C)c(F)c1)C(=O)O (stereo partly drawn) [Example A19, 44-Carboxy-1-((S)-2-(2-((2-(4-((3-(6-(4-(2-(9-(3-(2,4-dioxotetrahydropyrimidin-1(2H)-yl)-4-methoxybenzoyl)-3,9-diazaspiro[5.5]undecan-3-yl)ethyl)phenyl)-7H-pyrrolo[2,3-d]pyrimidin-4-yl)-5-fluoro-2-methylphenyl)carbamoyl)-3-fluorophenyl)propan-2-yl)oxy)-2-oxoethyl)pyrrolidin-1-yl)-1,41,46-trioxo-45-undecyl-4,7,10,13,16,19,22,25,28,31,34,37-dodecaoxa-40,45-diazahexapentacontan-56-oic acid] | 0.5 | >48 | 0.3 | >48 | >48 | 0.3 | 0.5 | >48 | 0.2 | Duration of BTK degradation in mouse ≥90% (days) (BTK C481S; i.v., 50 umol/kg): 7* days; Plasma stability (h) cyno [6]: >48 h
4 | COc1ccc(C(=O)N2CCC3(CCN(CCc4ccc(-c5cc6c(-c7cc(F)cc(NC(=O)N8C[C@H](CC(C)C)[C@@H](O)C8)c7C)ncnc6[nH]5)cc4)CC3)CC2)cc1N1CCC(=O)NC1=O [Compound Va, (3R,4S)—N-(3-(6-(4-(2-(9-(3-(2,4-dioxotetrahydropyrimidin-1(2H)-yl)-4-methoxybenzoyl)-3,9-diazaspiro[5.5]undecan-3-yl)ethyl)phenyl)-7H-pyrrolo[2,3-d]pyrimidin-4-yl)-5-fluoro-2-methylphenyl)-3-hydroxy-4-isobutylpyrrolidine-1-carboxamide] |  |  |  |  |  |  |  |  |  | Payload C0-uM (unconjugated degrader dosed, first payload cell) ([7]; API i.v., listed as note (20 mg/kg), species taken as mouse): 16.7 µM; AUC ([7]; iv, API i.v., listed as note (20 mg/kg), species taken as mouse, read-out: Payload AUC-uM.h (unconjugated degrader dosed, first payload cell)): 15.2 µM·h; AUC ([7]; sc, mouse, subcutaneous dosing, unconjugated Compound Va at 20 mg/kg, read-out: Payload AUC): 15.2 µM·h
